These results are taken from paper PMC2995471, “Identification of amino acid residues in protein SRP72 required for binding to a kinked 5e motif of the human signal recognition particle RNA”.

Residue numbers refer to the chain shown, from its start.

Common to all, as to experiment: Ni-NTA magnetic bead pull-down; EMSA: 50 mM Tris-HCl pH 7.9, 300 mM KOAc, 5 mM MgCl2, 16% glycerol, 10 min 37 C; bead pull-down: 82.5 ng 5e RNA, 0.056-1.8 uM protein, eluted with 250 mM imidazole (binding buffer not given, as in ref 16)
The target in series [1] is T1, 72h 583-RS-584 to AA (human, UniProt O76094 531-590, R583A;S584A).
T1 sequence: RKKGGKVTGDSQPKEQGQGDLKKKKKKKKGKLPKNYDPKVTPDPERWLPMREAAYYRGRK
To be noted: protein: recombinant; tags: His6; hairpin with 11-nt 5e internal motif (K-turn).

Series [2] concerns the target T2, 72h (human, UniProt O76094 531-590).
T2 sequence: T1 sequence with A53R, A54S
To be noted: protein: recombinant; tags: His6; hairpin with 11-nt 5e internal motif (K-turn).

Series [3] has as its target T3, 72f (human, UniProt O76094 531-587).
T3 sequence: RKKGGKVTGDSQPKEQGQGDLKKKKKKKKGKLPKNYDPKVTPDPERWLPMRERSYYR
Particulars: protein: recombinant; tags: N-terminal His6; hairpin with 11-nt 5e internal motif (K-turn).

Series [4] addresses T4, 72h 589-RK-590 to AA (human, UniProt O76094 531-590, R589A;K590A).
T4 sequence: T1 sequence with A53R, A54S, R59A, K60A
To be noted: protein: recombinant; tags: His6; hairpin with 11-nt 5e internal motif (K-turn).

Series [5] has as its target T5, 72g (human, UniProt O76094 531-585).
T5 sequence: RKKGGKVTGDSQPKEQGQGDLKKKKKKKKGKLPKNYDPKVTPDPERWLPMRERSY
Particulars: protein: recombinant; tags: N-terminal His6; hairpin with 11-nt 5e internal motif (K-turn).

Series [6] addresses T6, 72e (human, UniProt O76094 531-617).
T6 sequence: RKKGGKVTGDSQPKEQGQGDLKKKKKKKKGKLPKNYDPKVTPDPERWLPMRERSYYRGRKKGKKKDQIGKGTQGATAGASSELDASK
Particulars: protein: recombinant; tags: N-terminal His6; hairpin with 11-nt 5e internal motif (K-turn).

In series [7] the target is T7, 72h 587-RG-588 to AA (human, UniProt O76094 531-590, R587A;G588A).
T7 sequence: T1 sequence with A53R, A54S, R57A, G58A
Particulars: protein: recombinant; tags: His6; hairpin with 11-nt 5e internal motif (K-turn).

In series [8] the target is T8, 72h 577-WL-578 to AA (human, UniProt O76094 531-590, W577A;L578A).
T8 sequence: T1 sequence with W47A, L48A, A53R, A54S
To be noted: protein: recombinant; tags: His6; hairpin with 11-nt 5e internal motif (K-turn).

In series [9] the target is T9, 72k (human, UniProt O76094 545-590).
T9 chain: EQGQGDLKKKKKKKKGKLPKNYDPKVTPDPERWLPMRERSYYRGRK
To be noted: protein: recombinant; tags: His6; hairpin with 11-nt 5e internal motif (K-turn).

For series [10], the target named is T10, 72j (human, UniProt O76094 541-590).
T10 chain: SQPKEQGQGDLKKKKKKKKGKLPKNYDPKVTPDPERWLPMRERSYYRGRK
Particulars: protein: recombinant; tags: His6; hairpin with 11-nt 5e internal motif (K-turn).

Series [11] has as its target T11, 72h M580A (human, UniProt O76094 531-590, M580A).
T11 sequence: T1 sequence with M50A, A53R, A54S
Particulars: protein: recombinant; tags: His6; hairpin with 11-nt 5e internal motif (K-turn).

The target of series [12] is T12, 72h del 555-KK-556 (human, UniProt O76094 531-590, del555-556).
T12 sequence: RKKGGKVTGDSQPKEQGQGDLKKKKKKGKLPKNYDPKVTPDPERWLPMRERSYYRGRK
To be noted: protein: recombinant; tags: His6; hairpin with 11-nt 5e internal motif (K-turn).

The target of series [13] is T13, 72h 581-RE-582 to AA (human, UniProt O76094 531-590, R581A;E582A).
T13 sequence: T1 sequence with R51A, E52A, A53R, A54S
To be noted: protein: recombinant; tags: His6; hairpin with 11-nt 5e internal motif (K-turn).

For series [14], the target named is T14, 72h 579-PM-580 to AA (human, UniProt O76094 531-590, P579A;M580A).
T14 sequence: T1 sequence with P49A, M50A, A53R, A54S
Particulars: protein: recombinant; tags: His6; hairpin with 11-nt 5e internal motif (K-turn).

The target in series [15] is T15, 72h 585-YY-586 to AA (human, UniProt O76094 531-590, Y585A;Y586A).
T15 sequence: T1 sequence with A53R, A54S, Y55A, Y56A
To be noted: protein: recombinant; tags: His6; hairpin with 11-nt 5e internal motif (K-turn).

For series [16], the target named is T16, 72h P579A (human, UniProt O76094 531-590, P579A).
T16 sequence: T1 sequence with P49A, A53R, A54S
Particulars: protein: recombinant; tags: His6; hairpin with 11-nt 5e internal motif (K-turn).

In the case of GGUCCGGGUGUCCGCACUAGGGAGCUAGUGGGAUCGCGCCUGGAUC (structured_RNA) [5e SRP RNA], the binding result in series [1] is “no binding”; in series [2] it was “binds”; in [3], “binds”; in series [4], “binds”; in series [5], “no binding”; in series [6], “binds”. Further, the binding result in series [7] was “binds”; in [8] it was “no binding”; in [9], “binds”; in series [10], “binds”. For the same molecule, the binding signal in series [11] is 100 ± 4 % of wild-type binding; in series [12] it was 46 ± 12 % of wild-type binding; in [13], 69 ± 14 % of wild-type binding; in [14] it was 14 ± 9 % of wild-type binding; in series [15] it was 60 ± 3 % of wild-type binding; in series [16], 26 ± 1 % of wild-type binding.
